Assay results taken from patent publication US11707511B2, “Vaccine compositions and methods of using the same” (The Board of Supervisors of Louisiana State University and …, priority 2017, dated 2023).

What was measured:
C. tropicalis ATCC 28775 = test: Passive transfer of mAbs, neutropenic mouse model of disseminated candidiasis by C. tropicalis; format: in vivo; conditions: for Protection against C. tropicalis / Protection against C. tropicalis (grade word): Table 6, neutropenic BALB/c mice, mAb i.p. 4 h before 1×10^7 C. tropicalis i.v.; for Protection against Candida spp in mouse model: Against C. tropicalis / Protection against Candida spp in mouse model: Against C. tropicalis (grade word): Table 9
Description: (§1) Induction of neutropenia. Although C. albicans remains the dominant disease-causing pathogen of this genus, rates of infections caused by non-albicans Candida (NAC) species are increasing. Among these Candida species, only C. albicans is pathogenic in the normal mouse model. To test vaccine and mAbs against non-albicans Candida spp, we have developed neutropenic murine models of disseminated infection by C. glabrata, C. tropicalis, and C. parapsilosis. Before challenge, BLAB/c mice were made neutropenic by intraperitoneal receipt of a 200 mg/kg dose of cyclophosphamide (CY; Sigma-Aldrich) at day −3. The i.p. injection (150 mg/kg) is repeated every 10 days after infection (i.e., at days 10, 20, 30, and 40 post-infection) in order to maintain low neutrophil counts for the entire experimental procedure. […] To evaluate leukocytopenia in these mice, blood samples were collected from tail veins 3 days after each CY or saline injection (n=10 in each group). Total leukocyte and differential cell counts were determined on a hemocytometer and by Wright-Giemsa staining. Body weights of the mice were also measured and compared for 14 days after the first CY or saline injection (n=10 in each group).
(§2) Fungal challenge dose and assessment ofprotection. Although C. albicans remains the dominant disease-causing pathogen of this genus, rates of infections caused by non-albicans Candida (NAC) species are increasing (18). Among these Candida species, only C. albicans is pathogenic in the normal mouse model (19,20). We have developed neutropenic murine models of disseminated infection by C. glabrata, C. tropicalis, and C. parapsilosis. […] In details, mice of different experimental groups (five mice per group) were intravenously infected with 5×10^6 viable C. parapsilosis ATCC MYA-4646 (A), 1×108 C. glabrata ATCC 2001 cells (B) and 1×107 C. tropicalis ATCC 28775 cells (C) in 0.1 ml DPBS. As controls, immunocompetent mice were challenged with the same dose of each Candida strain tested.
(§3) Passive transfer of MAbs by intraperitoneal (i.p.) route. The preventive effect of peptide-specific mAbs listed in Table 3 and Table 4 in naïve mice was examined by passive transfer experiments. Each mAb was appropriately diluted in DPBS to give a 40,000-100,000 ELISA titer against each corresponding specific peptide coated on the plate. For testing, mice received 0.5 ml of each mAb or 1 ml of two mAbs in combination (0.5 ml of each) intraperitoneally. Table 6 and Table 7 have listed all the peptide-specific mAb combinations that have been tested, as well as the protective efficacy of each mAb cocktail as compared to single mAb treatment. The negative control materials tested in mice were single mAb or DPBS. Control mice received 0.5 ml of the DPBS diluents or single mAb treatment. For each condition, 6- to 8-week-old female BALB/c mice (NCI) were given 0.5 ml of test mAb, or 1 ml two mAb cocktails or control materials intraperitoneally, followed 4 h later by 0.1 ml intravenously of defined lethal dose of yeast cells per milliliter of DPBS. Mice were divided into groups with five mice each and three independent experiments were carried out. In some experiments, mice were given the same dose of mAbs or control materials on every other day post-challenge for two weeks, as compared to the protective efficacy of mAb in combinations. All mice were sacrificed on day 50. For animal groups that were challenged non-albicans candida species, determined optimal challenge doses were applied for each candida strain.
(§4) The preventive effect of each universal peptide-specific mAb was examined by passive transfer experiments. Each mAb was appropriately diluted in DPBS (0.2 μg/μl) to give a 100,000 ELISA titer against each universal peptide coated on the plate. For testing, 5 mice of each tested group received 0.5 ml of each mAb intraperitoneally. The negative control materials tested in mice were mAbs absorbed with C. albicans yeast cells (3153A) and DPBS. […]

C. glabrata ATCC 2001 = test: Passive transfer of mAbs, neutropenic mouse model of disseminated candidiasis by C. glabrata; format: in vivo; conditions: for Protection against C. glabrata / Protection against C. glabrata (grade word): Table 6, neutropenic BALB/c mice, mAb i.p. 4 h before 1×10^8 C. glabrata i.v.; for Protection against Candida spp in mouse model: Against C. glabrata / Protection against Candida spp in mouse model: Against C. glabrata (grade word): Table 9
Description: as §1, §2, §3, §4

C. auris = test: Passive transfer of mAbs in cyclophosphamide-immunosuppressed B6.129X1Elane mice, disseminated infection by C. auris; format: in vivo, Candida auris; conditions: 2×108 C. auris i.v.
Method: An immunocompromised murine model of disseminated infection by C. auris was developed. To induce immunosuppression, Jackson B6.129X1Elane mice received a 200 mg/kg dose of cyclophosphamide (CY) by i.p. on day −3. Prolonged immunosuppression was maintained for 30 days by giving each animal a 200 mg/kg dose of CY by i.p. every 10 days after infection. On day 0, mice of different experimental groups were intravenously infected with 2×10^8 viable C. auris yeast cells.
The preventive effect of peptide-specific mAbs, for example 7H6A2 and 1D4H5, and combinations thereof, for example 7H6A2+1D4H5, was examined by passive transfer experiments. Each mAb was appropriately diluted in DPBS to give a 40,000-100,000 ELISA titer against each corresponding specific peptide coated on the plate. For testing, mice received 0.5 ml of each mAb or 1 ml of two mAbs in combination (0.5 ml of each) intraperitoneally. Control mice received 0.5 ml of the DPBS diluents.
Protective mAbs protect immunocompromised mice against disseminated infection by Candida auris: The possibility of using passive mAb immunotherapy in immunocompromised mice against disseminated candidiasis by C. auris. The protective effect of mAb 7H6A2, 1D4H5 or these two mAbs in combination against the disease in immunocompromised mice was examined by passive transfer experiments (FIG. 14). Mice received either mAb 7H6A2 or 1D4H5 or the two mAbs in combination had reduced CFUs in kidneys (FIG. 14A) and in brains (FIG. 14B) as compared with control mice.

B1: 1D4H5: IgG1 mAb of hybridoma 1D4H5, specific for GPV-M1; VH SEQ ID NO: 64, VL SEQ ID NO: 66 (antibody, V domains shown)
VH: MYLGLNCVFIVFLLKGVQSEVKLEESGGGLVQPGGSMKLSCVASGFTFSNYWMNWVRQSPEKGLEWVAEIRLKSNNYATHYAESVKGRFTISSDDSKSSVYLQMNNLRAEDTGIYYCSTGNYWGQGTTLTVSS
VL: MDFQMQIISLLLISVTVIVSNGEIVLTQSPTTMAASPGEKITITCSASSTISSNYLHWYQQKPGFSPKLLIYRTSNLASGVPARFSGSGSGTSYSLTIGTMEAEDVATYYCQQGSTISRTFGSGTKLEIK
Protection against C. tropicalis (C. tropicalis ATCC 28775): (60-80%)
Protection against C. tropicalis (grade word) (C. tropicalis ATCC 28775): High
Protection against Candida spp in mouse model: Against C. tropicalis (C. tropicalis ATCC 28775): (60-80%)
Protection against Candida spp in mouse model: Against C. tropicalis (grade word) (C. tropicalis ATCC 28775): High
Protection against C. glabrata (C. glabrata ATCC 2001): (70-90%)
Protection against C. glabrata (grade word) (C. glabrata ATCC 2001): High
Protection against Candida spp in mouse model: Against C. glabrata (C. glabrata ATCC 2001): (70-90%)
Protection against Candida spp in mouse model: Against C. glabrata (grade word) (C. glabrata ATCC 2001): High
CFUs in kidneys as compared with control mice (C. auris; FIG. 14A): reduced CFUs
CFUs in brains as compared with control mice (C. auris; FIG. 14B): reduced CFUs

B2: 10E7E2: IgG1 mAb of hybridoma 10E7E2, specific for GPV-P3; VH SEQ ID NO: 72, VL SEQ ID NO: 74 (antibody, V domains shown)
VH: QVQLKQSGPGLVQPSQSLSITCTVSGFSLTSYGVHWVRQSPGKGLEWLGVIWSGGTTDYNAAFISRLSISKDNSKSQVFFKMNSLQANDTAIYYCARGGHRGFAYWGQGTLVTVSA
VL: DIVMTQSHKFMSTSVGDRVSITCKASQDVGTAVAWYQQKPGQSPKLLIYWASTRHTGVPDRFTGSGSGTDFTLTISNVQSEDLADYFCQQYSSYPLTFGAGTKLELK
Protection against C. tropicalis (C. tropicalis ATCC 28775): (60-70%)
Protection against C. tropicalis (grade word) (C. tropicalis ATCC 28775): High
Protection against Candida spp in mouse model: Against C. tropicalis (C. tropicalis ATCC 28775): (60-70%)
Protection against Candida spp in mouse model: Against C. tropicalis (grade word) (C. tropicalis ATCC 28775): High
Protection against C. glabrata (C. glabrata ATCC 2001): (60-70%)
Protection against C. glabrata (grade word) (C. glabrata ATCC 2001): High
Protection against Candida spp in mouse model: Against C. glabrata (C. glabrata ATCC 2001): (60-70%)
Protection against Candida spp in mouse model: Against C. glabrata (grade word) (C. glabrata ATCC 2001): High
